From patent US12331106B2, “Anti-angiopoietin-2 antibodies that induce Tie2 activation” (Institute for Basic Science, priority 2018, dated 2025)

B1: 4B9H11: humanized anti-Ang2 human IgG1 antibody from mouse 4B9; VH SEQ ID NO: 43, VL SEQ ID NO: 44 (antibody, V domains shown)
VH: QVQLVESGGGLVKPGGSLRLSCAASGFTFSDYYMYWIRQAPGKGLEWVSTISVGGSFTYYPDSVKGRFTISRDNAKNSLYLQMNSLRAEDTAVYYCARDWGLRPWFVYWGQGTLVTVSS
VL: DIQMTQSPSSLSASVGDRVTITCKASQDVSTAVAWYQQKPGKAPKLLIYWASTRHTGVPSRFSGSGSGTDFTLTISSLQPEDFATYYCQQHYSTPPTFGQGTKVEIK
modifications: human IgG1 constant regions; VH; VL

What was measured:
[1] = system: LLC (Lewis Lung Carcinoma) tumor; experiment: Tumor growth inhibition in LLC subcutaneous model; format: in vivo, C57BL/6 mice; conditions: LLC s.c.; antibody 10 mg/kg i.p. every 2-3 days; Cpt 3 mg/kg i.p. once
Experimental: 2C8H11 anti-Ang2 antibody was tested for its ability to inhibit tumor growth in LLC (Lewis Lung Carcinoma) cell line tumor model. Specifically, LLC cell line (ATCC) was cultured in DMEM (GIBCO™) supplemented with 10% FBS (GIBCO™). LLC cells (1×10^6 in 100 μl of PBS) were subcutaneously injected into 6˜8-week-old C57BL/6 mice (Jackson Laboratory) which were anesthetized with a mixture of Ketamine and Xylazine. When the volume of the tumors reached 50˜100 mm^3, the mice were intraperitoneally administered with 10 mg/kg of 2C8H11 antibody every 2˜3 days. Cisplatin (Cpt) was injected intraperitoneally once at a dose of 3 mg/kg in both monotherapy and combination therapy groups. The changes in tumor volume was tracked over the following days. Tumor volume (V) was measured using the formula: V=(width^2×length)/2 V=(width^2×length)/2
The experiment was performed in 4 groups: Fc (control group), Fc+Cpt group, 2C8H11 group, and 2C8H11+Cpt group. […] Meanwhile, combined treatment with 2C8H11 and Cpt delayed tumor growth by 47% compared with Fc.

[2] = system: downstream signaling of the Tie2 receptor (Akt phosphorylation) in HUVECs; experiment: Akt phosphorylation in HUVECs by humanized anti-Ang2 antibodies (immunoblot); format: cell-based, human; conditions: hAng2 1 μg/ml, 30 min, antibody 0.5 μg/ml, maintained until 50 μg/ml
Experimental: To investigate whether the humanized anti-Ang2 antibodies induce the downstream signaling of the Tie2 receptor in endothelial cells, HUVECs (LONZA™) were treated with human Ang2 protein together with humanized anti-Ang2 antibody. Then, the level of Akt phosphorylation, the main downstream signaling protein of Tie2 receptor was measured by immunoblotting. To compare the degree of Akt activation, cells were treated with full-length hAng2 (R&D® Systems) alone or antibody alone in the experiment.
Specifically, HUVEC cells (1×10^5 cells/ml) were cultured in EGM-2 (LONZA™) at 37° C. in 60 mm culture dish. Cells of 90% confluency were incubated with EBM-2 (LONZA™) for 4 hrs. The serum-starved HUVECs were treated with the mixture of anti-Ang2 antibody and hAng2 protein (1 μg/ml, R&D® Systems), and further incubated for 30 min. The cells were washed with cold PBS, treated with lysis buffer, and lysed at 4° C. for 20 min. Then, the cell lysates were prepared by centrifugation at 13000 rpm for 15 min. 5× SDS sample buffer was added to the cell lysate and the mixture was boiled at 95° C. for 5 min. Then, the mixture was subjected to SDS-PAGE and subsequent Western blotting.
To investigate the phosphorylation of Akt, the membrane was blocked with 5% skim milk-containing TBST for 1 hr at RT, and incubated with anti-phospho-Akt antibody (S473) at 4° C. for about 8 hrs. […]

HUVEC monolayer = experiment: In vitro vascular permeability (leakage) assay, TNF-α induced, FITC-dextran; format: cell-based, human; conditions: HUVECs; pre-treatment antibody 1 μg/ml with Ang2 1 μg/ml 30 min; TNF-α 100 ng/ml 22 hr
Experimental: Vascular leakage assay was carried out in HUVECs using In Vitro Vascular Permeability Assay Kit (Millipore®) according to the manufacturer's instruction. HUVECs were seeded into the insert of the transwell plate and cultured for 3 days for 100% confluence. The HUVECs were pre-incubated with Ang2 (1 μg/ml), Ang2 (1 μg/ml) together with Control, 2C8H11 or 4B9H11 antibody (1 μg/ml) for 30 min, and then TNF-α (100 ng/ml) was added, and the cells were incubated at 37° C. for 22 hr. FITC-dextran was added to the upper chamber and incubated for 20 min. Passage of FITC-dextran though the HUVEC monolayer was measured by a fluorescence reader at excitation and emission wavelengths of 485 and 535 nm, respectively.

hAng2 = biological target: T1, hAng2 (Homo sapiens, UniProt O15123); experiment: OCTET affinity of humanized anti-Ang2 antibodies against hAng2; format: binding; conditions: humanized 4B9 antibodies (IgG1) fixed on AR2G biosensor; hAng2 50-0 nM
T1 sequence (O15123 19-496): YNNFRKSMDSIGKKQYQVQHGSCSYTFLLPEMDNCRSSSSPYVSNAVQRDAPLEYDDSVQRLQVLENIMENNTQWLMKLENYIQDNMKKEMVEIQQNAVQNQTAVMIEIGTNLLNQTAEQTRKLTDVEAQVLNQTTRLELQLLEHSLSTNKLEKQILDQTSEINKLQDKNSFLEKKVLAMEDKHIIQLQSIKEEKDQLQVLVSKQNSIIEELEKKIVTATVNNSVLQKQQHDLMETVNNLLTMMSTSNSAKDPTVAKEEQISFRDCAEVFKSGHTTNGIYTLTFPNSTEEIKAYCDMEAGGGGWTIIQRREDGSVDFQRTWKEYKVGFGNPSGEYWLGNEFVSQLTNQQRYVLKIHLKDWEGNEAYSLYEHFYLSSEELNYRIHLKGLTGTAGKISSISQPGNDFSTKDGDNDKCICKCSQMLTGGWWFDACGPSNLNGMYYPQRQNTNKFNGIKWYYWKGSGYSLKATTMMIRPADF

Tie2 receptor = experiment: Tie2 phosphorylation in HUVECs (immunoprecipitation/Western); format: cell-based, human; conditions: antibody 0.02-50 μg/ml with hAng2 1 μg/ml, 30 min
Experimental: Ang2 binds to the Tie2 receptor and acts as a weak agonist or antagonist. The anti-Ang2 antibody developed in this invention binds to Ang2 to induce Ang2-antibody complexes, further causing clustering of Tie2 receptors and consequently enhancing activation of Tie2 receptor. Experiments were conducted to analyze the effect of anti-Ang2 antibody on Tie2 phosphorylation using HUVECs.
Specifically, HUVECs (LONZA™) were cultured in EGM-2 (LONZA™) at 37° C. and 5% CO2 concentration in a 100 mm culture dish. At 80-90% confluency, the cells were changed to EBM-2 (LONZA™) medium for 2 hrs˜ 6 hrs for serum starvation. Humanized anti-Ang2 antibodies at various concentrations (0.02 μg/ml to 50 μg/ml) were mixed with hAng2 protein (1 μg/ml, R&D® Systems) for 30 min. Then, the mixtures were treated with the cultured cells and further incubated for 30 min. The cells were washed twice with cold PBS and then lysed in 1000 μl of lysis buffer (10 mM Tris-Cl pH 7.4, 150 mM NaCl, 5 mM EDTA, 10% glycerol, 1% TRITON™ X-100 (non-ionic polyoxyethylene surfactant), protease inhibitor, phosphatase inhibitor) and then lysed at 4° C. for 60 min. Cell extracts were prepared and centrifuged at 12,000 rpm for 10 min. The supernatant was quantitated by bicinchoninic (BCA) assay.
To 0.5 mg of cell lysate, 1 μg of Tie2 antibody (R&D® Systems, AF313) was added and incubated overnight at 4° C. […]

[3] = system: Tie2 receptor clustering / FOXO1 translocation in HUVECs; experiment: Tie2 clustering and FOXO1 translocation in HUVECs (immunofluorescence); format: cell-based, human; conditions: HUVECs, 30 min
Experimental: Tie2 clustering at cell-cell junction area and FOXO1 translocation from nucleus to cytosol by anti-Ang2 antibodies were examined in HUVECs by immunofluorescence. Specifically, HUVECs were seeded on 8 well slide chamber (Lab-Tek™ II) and maintained in EGM-2 medium for 2-3 days. At 100% confluence, the cells were serum starved with EBM-2 medium for 4 hrs and then treated with 1 μg/ml anti-Ang2 antibodies together with 1 μg/ml of hAng2 for 30 min. Thereafter, the cells were fixed with 4% formaldehyde in PBS at room temperature (RT) for 10 min, permeabilized with 0.1% TRITON™ X-100 (non-ionic polyoxyethylene surfactant) in PBS, blocked with 1% BSA in PBS at RT for 60 min, and incubated with primary antibodies at RT for 1 hr. The primary antibodies for hTie2, FOXO1, and Human Fc were used. The cells were then incubated with secondary antibodies (Invitrogen) in the dark at RT for 1 hr and mounted with VECTASHIELD® mounting medium with DAPI (Vector Labs, antifade mounting media optimized for immunofluorescence applications). Images were taken with a laser scanning confocal microscope (LSM880, Carl Zeiss).
2C8H11-induced Tie2 clustering and FOXO1 translocation was examined in a time-course study (from 10 min to 240 min). […] 6-4: Inhibition of Vascular Permeability by Humanized Anti-Ang2 Antibodies

Molecule | tumor growth inhibition compared with Fc [1] | Akt phosphorylation [2] | vascular leakage induced by TNF-α (passage of FITC-dextran) (HUVEC monolayer) | Kdis (hAng2) | Kon (hAng2) | phosphorylation of Tie2 (Tie2 receptor) | co-localization of antibody with Tie2 receptor ([3]; anti-human Fc staining) | Tie2 translocation/clustering to cell-cell contact ([3]; antibodies 1 μg/ml with hAng2 1 μg/ml) | FOXO1 translocation from nucleus to cytosol ([3]; compared to serum-starved control)
N.N.[Cl][Pt][Cl] [Fc+Cpt, Cisplatin, reference compound] | similar |  |  |  |  |  |  |  | 
B1 |  | increased markedly | significantly inhibited | 1.58e-06 s⁻¹ | 92900 M⁻¹ s⁻¹ | strongly induced in a dose-dependent manner | co-localized with clustered Tie2 receptor at cell-cell contact and endocytosed Tie2 receptor in cytosol | induced Tie2 translocation/clustering to cell-cell contact | markedly disappeared in nucleus
